Consider 167 variants from the Human Domainome abundance scans (Beltran et al. 2025).

± gives the uncertainty stated by the source.

The labels stand for the following.
B1: Tudor domain-containing protein 3, residues 554 to 611; numbered along this chain, Q9H7E2 (parent)
chain: KMWKPGDECFALYWEDNKFYRAEVEALHSSGMTAVVKFIDYGNYEEVLLSNIKPIQTE

This data set covers variants of B1. In words: abundance fitness (aPCA) (normalised: wild type 0, dead -1); higher = more abundant; growth selection in yeast, the domain comes from the species named. As to conditions: Homo sapiens.
As for S50Q, the abundance fitness is -0.115 ± 0.11.
Consider S50W, for which the abundance fitness was -0.585 ± 0.08.
Take S50L: the abundance fitness was -0.523 ± 0.074.
Take S50F: the abundance fitness was -0.605 ± 0.093.
In the case of S50I, the abundance fitness was -0.192 ± 0.094.
For S50A, the abundance fitness is 0.019 ± 0.077.
As to S50P, the abundance fitness is -0.548 ± 0.082.
Consider S50K, for which the abundance fitness is 0.03 ± 0.08.
As for S50N, the abundance fitness is -0.217 ± 0.086.
Regarding S50G, the abundance fitness was -0.155 ± 0.054.
Regarding S50D, the abundance fitness turned out to be 0.026 ± 0.084.
Next, S50H: 0.048 ± 0.11; S50R: -0.155 ± 0.056.
Next, S50V: -0.082 ± 0.063.
On to S50M, for which the abundance fitness is -0.255 ± 0.09.
On to S50T, for which the abundance fitness is 0.059 ± 0.086.
For S50E, the abundance fitness is -0.118 ± 0.083.
Consider S50C, for which the abundance fitness was -0.08 ± 0.076.
With V47L, the abundance fitness is -0.433 ± 0.063.
On to V47S, for which the abundance fitness is -0.926 ± 0.1.
As to V47Y, the abundance fitness is -0.886 ± 0.23.
In the case of V47M, the abundance fitness is -0.821 ± 0.093.
Regarding V47Q, the abundance fitness is -0.714 ± 0.1.
On to V47H, for which the abundance fitness is -0.733 ± 0.17.
In the case of V47W, the abundance fitness is -0.846 ± 0.071.
Turning to V47P, the abundance fitness is -0.893 ± 0.11.
As to V47R, the abundance fitness was -0.937 ± 0.073.
With V47T, the abundance fitness was -0.966 ± 0.17.
Next, V47I: -0.134 ± 0.12; N51R: -0.485 ± 0.06.
Next, N51A: -0.308 ± 0.065; N51K: -0.418 ± 0.076; N51L: -0.727 ± 0.071.
Consider N51T, for which the abundance fitness is -0.529 ± 0.077.
With N51C, the abundance fitness was -0.205 ± 0.11.
As to N51G, the abundance fitness is -0.462 ± 0.055.
On to N51S, for which the abundance fitness was -0.205 ± 0.064.
Consider N51M, for which the abundance fitness is -0.364 ± 0.075.
Regarding N51E, the abundance fitness is -0.272 ± 0.069.
On to N51Y, for which the abundance fitness was -0.678 ± 0.16.
As to N51F, the abundance fitness is -1.02 ± 0.19.
N51W: the abundance fitness was -0.271 ± 0.077.
In the case of N51I, the abundance fitness is -0.837 ± 0.13.
For the variant N51Q, the abundance fitness was -0.036 ± 0.09.
As to N51H, the abundance fitness was found to be 0.055 ± 0.084.
With N51P, the abundance fitness is -1.02 ± 0.14.
Regarding N51D, the abundance fitness was -0.097 ± 0.1.
Consider N51V, for which the abundance fitness is -0.925 ± 0.083.
L49K: the abundance fitness is -0.774 ± 0.13.
For L49C, the abundance fitness is -0.243 ± 0.092.
Next, L49Q: -0.583 ± 0.11; L49N: -1.05 ± 0.19.
L49E: the abundance fitness was -0.924 ± 0.11.
In the case of L49G, the abundance fitness was -0.954 ± 0.079.
Regarding L49Y, the abundance fitness was -0.464 ± 0.1.
Next, L49W: -0.629 ± 0.1.
L49R: the abundance fitness was -0.708 ± 0.069.
With L49S, the abundance fitness is -0.645 ± 0.07.
As to L49P, the abundance fitness is -0.922 ± 0.14.
As for L49M, the abundance fitness is -0.032 ± 0.081.
Next, L49D: -0.886 ± 0.12.
Next, L49I: -0.026 ± 0.085; L49F: -0.602 ± 0.14; L49V: -0.046 ± 0.058.
As for I52A, the abundance fitness is -0.824 ± 0.093.
With I52W, the abundance fitness is -0.81 ± 0.11.
I52R: the abundance fitness was -0.938 ± 0.079.
Take I52S: the abundance fitness was -0.853 ± 0.089.
For I52T, the abundance fitness is -0.686 ± 0.14.
For the variant I52Y, the abundance fitness was -0.923 ± 0.16.
For I52L, the abundance fitness came out at 0.032 ± 0.067.
Next, I52D: -0.857 ± 0.13.
In the case of I52K, the abundance fitness is -0.974 ± 0.43.
For I52G, the abundance fitness was -0.895 ± 0.064.
Regarding I52C, the abundance fitness is -0.37 ± 0.077.
Next, I52E: -0.911 ± 0.12.
Turning to I52F, the abundance fitness is -0.906 ± 0.25.
As to I52M, the abundance fitness was 0.028 ± 0.12.
Consider I52H, for which the abundance fitness was -1.04 ± 0.34.
Next, I52P: -0.639 ± 0.12; I52Q: -1.01 ± 0.19.
Turning to I52V, the abundance fitness was -0.184 ± 0.063.
Q56C: the abundance fitness was 0.008 ± 0.082.
Take Q56L: the abundance fitness was -0.07 ± 0.057.
Turning to Q56D, the abundance fitness is -0.061 ± 0.093.
Next, Q56T: -0.003 ± 0.087.
Next, Q56V: -0.02 ± 0.06; Q56H: 0.041 ± 0.086.
Consider Q56G, for which the abundance fitness was determined as 0.031 ± 0.056.
For the variant Q56M, the abundance fitness was -0.037 ± 0.097.
In the case of Q56K, the abundance fitness is -0.065 ± 0.096.
As for Q56R, the abundance fitness is -0.078 ± 0.054.
Next, Q56W: -0.189 ± 0.077; Q56S: -0.054 ± 0.064.
Regarding Q56P, the abundance fitness is 0.015 ± 0.074.
As for Q56E, the abundance fitness was determined as 0.113 ± 0.081.
Regarding Q56F, the abundance fitness was -0.071 ± 0.11.
On to Q56I, for which the abundance fitness was -0.038 ± 0.092.
Next, K53Y: -0.214 ± 0.087; K53A: -0.276 ± 0.062; K53Q: -0.12 ± 0.1.
As for K53F, the abundance fitness was -0.229 ± 0.088.
K53G: the abundance fitness was -0.711 ± 0.065.
For K53R, the abundance fitness was found to be 0.008 ± 0.06.
As for K53C, the abundance fitness is -0.238 ± 0.087.
In the case of K53E, the abundance fitness was -0.261 ± 0.079.
With K53P, the abundance fitness was -0.809 ± 0.15.
Next, K53N: -0.378 ± 0.087; K53L: -0.217 ± 0.07; K53V: -0.194 ± 0.057.
Next, K53D: -0.659 ± 0.092.
On to K53I, for which the abundance fitness was -0.145 ± 0.092.
Next, K53T: -0.109 ± 0.096; K53M: -0.192 ± 0.12; K53H: -0.213 ± 0.11.
On to K53W, for which the abundance fitness was -0.242 ± 0.12.
As for L48D, the abundance fitness is -0.177 ± 0.098.
Consider L48K, for which the abundance fitness is -0.1 ± 0.081.
As for L48I, the abundance fitness is -0.408 ± 0.13.
L48W: the abundance fitness was -0.356 ± 0.071.
With L48N, the abundance fitness was -0.104 ± 0.11.
Consider L48M, for which the abundance fitness is -0.113 ± 0.069.
Regarding L48R, the abundance fitness was -0.197 ± 0.053.
On to L48G, for which the abundance fitness is -0.479 ± 0.069.
For the variant L48H, the abundance fitness was -0.152 ± 0.1.
For L48F, the abundance fitness was -0.224 ± 0.11.
As to L48Y, the abundance fitness is -0.247 ± 0.12.
With L48P, the abundance fitness is -0.077 ± 0.08.
In the case of L48Q, the abundance fitness is -0.008 ± 0.09.
With L48A, the abundance fitness is -0.049 ± 0.07.
Turning to L48T, the abundance fitness was -0.218 ± 0.084.
Next, L48V: -0.354 ± 0.062; L48E: -0.136 ± 0.089.
Next, P54L: -0.36 ± 0.065; P54C: -0.429 ± 0.093; P54Q: -0.188 ± 0.097.
Take P54Y: the abundance fitness was -0.565 ± 0.14.
As to P54T, the abundance fitness is -0.125 ± 0.093.
Next, P54W: -0.767 ± 0.085.
As to P54F, the abundance fitness is -0.701 ± 0.15.
Take P54S: the abundance fitness was -0.158 ± 0.063.
Next, P54N: -0.41 ± 0.13.
P54E: the abundance fitness is -0.006 ± 0.11.
Next, P54G: -0.332 ± 0.057.
Next, P54H: -0.181 ± 0.12; P54K: -0.138 ± 0.11; P54V: -0.298 ± 0.077.
As to P54R, the abundance fitness is -0.17 ± 0.054.
Take P54I: the abundance fitness was -0.5 ± 0.12.
Next, P54A: -0.162 ± 0.07; P54D: -0.229 ± 0.1.
Regarding T57S, the abundance fitness turned out to be 0.021 ± 0.063.
Regarding T57E, the abundance fitness turned out to be 0.114 ± 0.092.
For T57K, the abundance fitness was -0.047 ± 0.16.
For T57Y, the abundance fitness was -0.072 ± 0.11.
Next, T57N: 0.019 ± 0.11; T57D: 0.083 ± 0.074; T57H: 0.06 ± 0.12.
Next, T57G: 0.029 ± 0.055.
Next, T57Q: 0.02 ± 0.14; T57V: 0.04 ± 0.063.
On to T57W, for which the abundance fitness is -0.272 ± 0.096.
T57R: the abundance fitness was -0.047 ± 0.059.
Next, T57A: 0.041 ± 0.065.
With T57I, the abundance fitness is -0.036 ± 0.11.
As to T57C, the abundance fitness was -0.005 ± 0.085.
Turning to T57F, the abundance fitness was -0.123 ± 0.1.
